58 variants from publication PMC13397619 can be followed below.

First the molecules themselves.
B1: NLV3 TCR beta chain (CDR3β only) (parent)
chain: ASSPTGGSPSPLH

The test covers variants of B1. Nature of the test: T-Switch: Jurkat TCRβ−/− cells expressing a CDR3 saturation-mutagenesis library, stained with two peptide-HLA-A*02:01 tetramers (original and novel peptide) plus anti-CD3, FACS-sorted into four gates, gDNA sequenced. Conditions: tetramers 1 µg/mL, 30 min on ice, SP, DP and SW gates expanded about 10 days between rounds ('two to three rounds of selection' in the Methods), unresolved parent, parent is a CDR3 fragment, scale: fold enrichment, numbering: sequential-on-construct, sequence starts at 1.

The mark [1] stands for this setting: with both tetramers (double-negative gate, binds neither): HLA-A*02:01 with … and with …, gate DN: OPPOSITE: higher = more of the variant in the gate that binds neither peptide = LESS binding (or no expression; inferred). Fold enrichment of the CDR3 variant in one FACS gate of a two-tetram.
The mark [2] stands for this setting: with both tetramers (double-positive gate): HLA-A*02:01 with … and with …, gate DP: higher = more of the variant in the gate that binds both peptides. Fold enrichment of the CDR3 variant in one FACS gate of a two-tetramer stain. SP/DP/SW gates were expanded and re-sorted bef.

For […] (CDR3 as printed); G6K derived by comparing it with the table's wild-type CDR3 ASSPTGGSPSPLH, the enrichment was found to be 1.4 under setting [1] and 0 under setting [2].

With […] (CDR3 as printed); S8T derived by comparing it with the table's wild-type CDR3 ASSPTGGSPSPLH, the enrichment is, setting by setting: under setting [1], 1.42; under setting [2], 0.

With […] (CDR3 as printed); T5M derived by comparing it with the table's wild-type CDR3 ASSPTGGSPSPLH, the enrichment reads like this: under setting [1], 0.479; under setting [2], 0.

As to […] (CDR3 as printed); S8I derived by comparing it with the table's wild-type CDR3 ASSPTGGSPSPLH, the enrichment was determined as 1.23 under setting [1] and 0 under setting [2].

In the case of […] (CDR3 as printed); P11G derived by comparing it with the table's wild-type CDR3 ASSPTGGSPSPLH, the enrichment runs as follows: under setting [1], 1.17; under setting [2], 0.

Take […] (CDR3 as printed); S2H derived by comparing it with the table's wild-type CDR3 ASSPTGGSPSPLH: the enrichment is 0.777 under setting [1] and 0 under setting [2].

Take […] (CDR3 as printed); A1D derived by comparing it with the table's wild-type CDR3 ASSPTGGSPSPLH: the enrichment by setting is: under setting [1], 0.881; under setting [2], 0.

For […] (CDR3 as printed); G7E derived by comparing it with the table's wild-type CDR3 ASSPTGGSPSPLH, the enrichment was 1.08 under setting [1] and 0 under setting [2].

For the variant […] (CDR3 as printed); G6T derived by comparing it with the table's wild-type CDR3 ASSPTGGSPSPLH, the enrichment reads like this: under setting [1], 1.01; under setting [2], 0.

With […] (CDR3 as printed); A1N derived by comparing it with the table's wild-type CDR3 ASSPTGGSPSPLH, the enrichment under setting [1] stood at 1.07 and the enrichment under setting [2] was determined as 0.

With […] (CDR3 as printed); T5R derived by comparing it with the table's wild-type CDR3 ASSPTGGSPSPLH, the enrichment under setting [1] turned out to be 1.07 and the enrichment under setting [2] is 0.

With […] (CDR3 as printed); P11A derived by comparing it with the table's wild-type CDR3 ASSPTGGSPSPLH, the enrichment came to 0.423 under setting [1] and 0 under setting [2].

As for […] (CDR3 as printed); S2T derived by comparing it with the table's wild-type CDR3 ASSPTGGSPSPLH, the enrichment runs as follows: under setting [1], 0.755; under setting [2], 0.

Regarding […] (CDR3 as printed); P4L derived by comparing it with the table's wild-type CDR3 ASSPTGGSPSPLH, the enrichment is 0.459 under setting [1] and 0 under setting [2].

Consider […] (CDR3 as printed); S10A derived by comparing it with the table's wild-type CDR3 ASSPTGGSPSPLH, for which the enrichment by setting is: under setting [1], 0.624; under setting [2], 0.

[…] (CDR3 as printed); H13G derived by comparing it with the table's wild-type CDR3 ASSPTGGSPSPLH: the enrichment was determined as 0.702 under setting [1] and 0 under setting [2].

Turning to […] (CDR3 as printed); S3P derived by comparing it with the table's wild-type CDR3 ASSPTGGSPSPLH, the enrichment runs as follows: under setting [1], 0.64; under setting [2], 0.

For […] (CDR3 as printed); T5P derived by comparing it with the table's wild-type CDR3 ASSPTGGSPSPLH, the enrichment by setting is: under setting [1], 1.04; under setting [2], 0.

[…] (CDR3 as printed); L12V derived by comparing it with the table's wild-type CDR3 ASSPTGGSPSPLH: the enrichment amounted to 0.702 under setting [1] and 0 under setting [2].

As for […] (CDR3 as printed); T5V derived by comparing it with the table's wild-type CDR3 ASSPTGGSPSPLH, the enrichment amounted to 0.249 under setting [1] and 0 under setting [2].

For the variant […] (CDR3 as printed); S8V derived by comparing it with the table's wild-type CDR3 ASSPTGGSPSPLH, the enrichment is, setting by setting: under setting [1], 0.756; under setting [2], 0.

On to […] (CDR3 as printed); S3E derived by comparing it with the table's wild-type CDR3 ASSPTGGSPSPLH, for which the enrichment turned out to be 0.814 under setting [1] and 0 under setting [2].

In the case of […] (CDR3 as printed); P9W derived by comparing it with the table's wild-type CDR3 ASSPTGGSPSPLH, the enrichment reads like this: under setting [1], 1.05; under setting [2], 0.

As to […] (CDR3 as printed); P11R derived by comparing it with the table's wild-type CDR3 ASSPTGGSPSPLH, the enrichment is, setting by setting: under setting [1], 0.579; under setting [2], 0.

Take […] (CDR3 as printed); S3R derived by comparing it with the table's wild-type CDR3 ASSPTGGSPSPLH: the enrichment was 0.964 under setting [1] and 0 under setting [2].

On to […] (CDR3 as printed); T5Y derived by comparing it with the table's wild-type CDR3 ASSPTGGSPSPLH, for which the enrichment by setting is: under setting [1], 0.587; under setting [2], 0.

As to […] (CDR3 as printed); P9V derived by comparing it with the table's wild-type CDR3 ASSPTGGSPSPLH, the enrichment was found to be 0.664 under setting [1] and 0 under setting [2].

In the case of […] (CDR3 as printed); G6L derived by comparing it with the table's wild-type CDR3 ASSPTGGSPSPLH, the enrichment was 0.967 under setting [1] and 0 under setting [2].

[…] (CDR3 as printed); S2A derived by comparing it with the table's wild-type CDR3 ASSPTGGSPSPLH: the enrichment reads like this: under setting [1], 0.536; under setting [2], 0.

Regarding […] (CDR3 as printed); P9L derived by comparing it with the table's wild-type CDR3 ASSPTGGSPSPLH, the enrichment under setting [1] was 1.2 and the enrichment under setting [2] turned out to be 0.

Take […] (CDR3 as printed); A1T derived by comparing it with the table's wild-type CDR3 ASSPTGGSPSPLH: the enrichment runs as follows: under setting [1], 0.774; under setting [2], 0.

For […] (CDR3 as printed); T5S derived by comparing it with the table's wild-type CDR3 ASSPTGGSPSPLH, the enrichment reads like this: under setting [1], 0.633; under setting [2], 0.

In the case of […] (CDR3 as printed); S3Q derived by comparing it with the table's wild-type CDR3 ASSPTGGSPSPLH, the enrichment reads like this: under setting [1], 1.09; under setting [2], 0.

[…] (CDR3 as printed); L12Y derived by comparing it with the table's wild-type CDR3 ASSPTGGSPSPLH: the enrichment reads like this: under setting [1], 1.11; under setting [2], 0.

As for […] (CDR3 as printed); A1Y derived by comparing it with the table's wild-type CDR3 ASSPTGGSPSPLH, the enrichment was determined as 1.15 under setting [1] and 0 under setting [2].

In the case of […] (CDR3 as printed); H13P derived by comparing it with the table's wild-type CDR3 ASSPTGGSPSPLH, the enrichment worked out at 1 under setting [1] and 0 under setting [2].

[…] (CDR3 as printed); S3M derived by comparing it with the table's wild-type CDR3 ASSPTGGSPSPLH: the enrichment was 0.806 under setting [1] and 0 under setting [2].

Regarding […] (CDR3 as printed); P11F derived by comparing it with the table's wild-type CDR3 ASSPTGGSPSPLH, the enrichment is 0.728 under setting [1] and 0 under setting [2].

As to […] (CDR3 as printed); G6R derived by comparing it with the table's wild-type CDR3 ASSPTGGSPSPLH, the enrichment reads like this: under setting [1], 0.796; under setting [2], 0.

Turning to […] (CDR3 as printed); L12K derived by comparing it with the table's wild-type CDR3 ASSPTGGSPSPLH, the enrichment runs as follows: under setting [1], 0.756; under setting [2], 0.

As to […] (CDR3 as printed); S10N derived by comparing it with the table's wild-type CDR3 ASSPTGGSPSPLH, the enrichment was found to be 1.13 under setting [1] and 0 under setting [2].

On to […] (CDR3 as printed); H13A derived by comparing it with the table's wild-type CDR3 ASSPTGGSPSPLH, for which the enrichment was found to be 0.498 under setting [1] and 0 under setting [2].

On to […] (CDR3 as printed); S2Q derived by comparing it with the table's wild-type CDR3 ASSPTGGSPSPLH, for which the enrichment reads like this: under setting [1], 0.653; under setting [2], 0.

As for […] (CDR3 as printed); P11V derived by comparing it with the table's wild-type CDR3 ASSPTGGSPSPLH, the enrichment under setting [1] amounted to 1.05 and the enrichment under setting [2] worked out at 0.

Turning to […] (CDR3 as printed); P11T derived by comparing it with the table's wild-type CDR3 ASSPTGGSPSPLH, the enrichment runs as follows: under setting [1], 1.19; under setting [2], 0.

Consider […] (CDR3 as printed); A1R derived by comparing it with the table's wild-type CDR3 ASSPTGGSPSPLH, for which the enrichment reads like this: under setting [1], 0.65; under setting [2], 0.

Take […] (CDR3 as printed); P4N derived by comparing it with the table's wild-type CDR3 ASSPTGGSPSPLH: the enrichment under setting [1] stood at 1.17 and the enrichment under setting [2] was found to be 0.

Regarding […] (CDR3 as printed); G6C derived by comparing it with the table's wild-type CDR3 ASSPTGGSPSPLH, the enrichment stood at 0.841 under setting [1] and 0 under setting [2].

For […] (CDR3 as printed); H13D derived by comparing it with the table's wild-type CDR3 ASSPTGGSPSPLH, the enrichment came out at 0.745 under setting [1] and 0 under setting [2].

With […] (CDR3 as printed); G7N derived by comparing it with the table's wild-type CDR3 ASSPTGGSPSPLH, the enrichment is 0.87 under setting [1] and 0 under setting [2].

In the case of […] (CDR3 as printed); S2C derived by comparing it with the table's wild-type CDR3 ASSPTGGSPSPLH, the enrichment reads like this: under setting [1], 0.867; under setting [2], 0.

As for […] (CDR3 as printed); S8P derived by comparing it with the table's wild-type CDR3 ASSPTGGSPSPLH, the enrichment is, setting by setting: under setting [1], 1.03; under setting [2], 0.

Take […] (CDR3 as printed); G6F derived by comparing it with the table's wild-type CDR3 ASSPTGGSPSPLH: the enrichment by setting is: under setting [1], 1.27; under setting [2], 0.

For the variant […] (CDR3 as printed); P4W derived by comparing it with the table's wild-type CDR3 ASSPTGGSPSPLH, the enrichment runs as follows: under setting [1], 1.23; under setting [2], 0.

[…] (CDR3 as printed); T5C derived by comparing it with the table's wild-type CDR3 ASSPTGGSPSPLH: the enrichment is, setting by setting: under setting [1], 1.08; under setting [2], 0.

As to […] (CDR3 as printed); P9G derived by comparing it with the table's wild-type CDR3 ASSPTGGSPSPLH, the enrichment runs as follows: under setting [1], 1.21; under setting [2], 0.

For the variant […] (CDR3 as printed); P9N derived by comparing it with the table's wild-type CDR3 ASSPTGGSPSPLH, the enrichment is, setting by setting: under setting [1], 1.65; under setting [2], 0.

Take […] (CDR3 as printed); G6H derived by comparing it with the table's wild-type CDR3 ASSPTGGSPSPLH: the enrichment under setting [1] was found to be 1.05 and the enrichment under setting [2] was found to be 0.
